“And” between values parts separate entries of the source, which are not always exact repeats. Identical values can stand only once.
Assays:
[1] = tested on: colorectal and pancreatic cancer biopsies; assay: IHC staining of patient tumor biopsies with NEO-101; type: binding, human; details: colorectal and pancreatic biopsies together
Description: Patients enrolled on the clinical diagnostic study agreed to provide their tumor biopsy or surgical specimen to be stained immunohistochemically with NEO-101. Tumor sections were prepared as slides, and two additional slides were prepared for negative control (human IgG1) and positive control (cytokeratin) staining to ensure quality controls for the IHC method. More specifically, tumor biopsy specimens from colorectal and pancreas cancer patients were deparaffinized at about 60° C. for 30 min prior to staining with NEO-101. Subsequently, all staining steps were carried out at about 25° C. Slides (4 μm) were blocked with Peroxo-Bloc® inhibitor (Zymed Laboratories) for about 2 min, rinsed with phosphate-buffered saline (PBS), and blocked with CAS (Zymed) for an additional about 10 minutes. Slides were stained with about 10 μg/mL of biotin-labeled NEO-101 for 1 hour, and washed three times with PBS containing 0.05% Tween®-20 non-ionic detergent. […]
All antibodies were biotinylated prior to use and tested independently at various concentrations using human tumor tissues known to react with the antibodies. Primary antibody (NEO-101) was used at about 10 μg/mL, detected with streptavidin-horseradish peroxidase conjugate, and mounted on slides. A positive staining scale ranging from +1 to +5 was applied to the staining results, measured by light microscopy. […]

SW620 (Colorectal) = assay: ADCC 4-hour 111-Indium release assay; type: cell-based, human
Description: (§1) The NEO-101 antibody was tested for antibody-dependent cell cytotoxicity (ADCC) activity against several colorectal and pancreatic tumor cell targets in vitro. The ADCC assay measures the amount of cell cytotoxicity that an antibody facilitates in a defined time period by the release of radiolabelled cytoplasmic proteins into the culture medium. […] The specific lytic activity was titratable with the number of effector cells in the assay.

LS174T (Colorectal) = assay: ADCC 4-hour 111-Indium release assay; type: cell-based, human
Description: as §1

Colo-205 (Colorectal) = assay: ADCC 4-hour 111-Indium release assay; type: cell-based, human
Description: as §1

PANC-1 (Pancreatic) = assay: ADCC 4-hour 111-Indium release assay; type: cell-based, human
Description: as §1

SK-MEL (Melanoma) = assay: ADCC 4-hour 111-Indium release assay; type: cell-based, human
Description: as §1

AsPC-1 (Pancreatic) = assay: ADCC 4-hour 111-Indium release assay; type: cell-based, human
Description: as §1

CFPAC-1 (Pancreatic) = assay: ADCC 4-hour 111-Indium release assay; type: cell-based, human
Description: as §1

SW1463 (Colorectal) = assay: ADCC 4-hour 111-Indium release assay; type: cell-based, human
Description: as §1

[2] = tested on: pancreatic cancer cell line AsPC-1; assay: Immunofluorescence with FITC labeled NEO-101; type: cell-based; details: 2 μg/ml FITC labeled antibody
Description: (§2) FACs data showing NEO-101 antibody binding to colon cancer and pancreatic cancer cell lines. Cells were washed and suspended in either 2 μg/ml NEO-101-FITC or isotype control antibody-FITC for 1 hour, washed and then subjected to FACS analysis. Experiments with all cell lines were repeated at least three times. […] DAPI was used to stain the nucleus. […] The staining pattern of these pancreatic and colorectal tumor cells was predominantly membrane-associated, consistent with the expression profile of MUC5AC.

[3] = tested on: colorectal cancer cell line LS174T; assay: Immunofluorescence with FITC labeled NEO-101; type: cell-based; details: 2 μg/ml FITC labeled antibody
Description: as §2

B1: NEO-101: Chimeric NEO-101 antibody, engineered in CHO-DG44 production cell clone 4B7; targets a variant of MUC5AC (protein)
light: QVVLTQSPVIMSASPGEKVTMTCSASSSISYMYWYQQKPGTSPKRWIYDTSKLASGVPARFSGSGSGTSYSLTISNMEAGDAATYYCHQRDSYPWTFGGGTNLEIK
heavy: QVQLKESGPDLVAPSQSLSITCTVSGFSLSKFGVNWVRQPPGKGLEWLGVIWGDGSTSYNSGLISRLSISKENSKSQVFLKLNSLQADDTATYYCVKPGGDYWGHGTSVTVSS
With B1 the “patient tumor samples considered positive (+1 to +5)” value [1] was 79%, the “patient tumor samples considered positive, samples/total” value [1] was 30 of 38 and 30/38 and the “% Specific Killing (±SEM)” value (SW620 (Colorectal); Effector:Target 12.5:1) was 51.5 ± 0.9%. For the same molecule, the “% Specific Killing (±SEM)” value (SW620 (Colorectal); Effector:Target 25:1) was 61.0 ± 1.8%, the “% Specific Killing (±SEM)” value (SW620 (Colorectal); Effector:Target 50:1) was 63.7 ± 2.9% and the “% Specific Killing (±SEM)” value (LS174T (Colorectal); Effector:Target 12.5:1) was 9.5 ± 0.5%. For the same molecule, the “% Specific Killing (±SEM)” value (LS174T (Colorectal); Effector:Target 25:1) was 18.5 ± 4.1%, the “% Specific Killing (±SEM)” value (LS174T (Colorectal); Effector:Target 50:1) was 26.8 ± 2.9% and the “% Specific Killing (±SEM)” value (Colo-205 (Colorectal); Effector:Target 12.5:1) was 32.8 ± 2.0%. For the same molecule, the “% Specific Killing (±SEM)” value (Colo-205 (Colorectal); Effector:Target 25:1) was 46.4 ± 1.6%, the “% Specific Killing (±SEM)” value (Colo-205 (Colorectal); Effector:Target 50:1) was 66.7 ± 0.6% and the “% Specific Killing (±SEM)” value (PANC-1 (Pancreatic); Effector:Target 12.5:1) was 21.2 ± 0.6%. The “% Specific Killing (±SEM)” value (PANC-1 (Pancreatic); Effector:Target 25:1) was 33.2 ± 3.3%, the “% Specific Killing (±SEM)” value (PANC-1 (Pancreatic); Effector:Target 50:1) was 46.8 ± 2.1% and the “% Specific Killing (±SEM)” value (SK-MEL (Melanoma); Effector:Target 12.5:1) was 2.3 ± 0.6%. For the same molecule, the “% Specific Killing (±SEM)” value (SK-MEL (Melanoma); Effector:Target 25:1) was 3.3 ± 1.1%, the “% Specific Killing (±SEM)” value (SK-MEL (Melanoma); Effector:Target 50:1) was 4.6 ± 1.1% and the “% Specific Killing (±SEM)” value (AsPC-1 (Pancreatic); Effector:Target 12.5:1) was 26.5 ± 6.7%. The “% Specific Killing (±SEM)” value (AsPC-1 (Pancreatic); Effector:Target 25:1) was 36.2 ± 2.6%, the “% Specific Killing (±SEM)” value (AsPC-1 (Pancreatic); Effector:Target 50:1) was 44.5 ± 6.8% and the “% Specific Killing (±SEM)” value (CFPAC-1 (Pancreatic); Effector:Target 12.5:1) was 11.1 ± 1.6%. The “% Specific Killing (±SEM)” value (CFPAC-1 (Pancreatic); Effector:Target 25:1) was 23.2 ± 2.2%, the “% Specific Killing (±SEM)” value (CFPAC-1 (Pancreatic); Effector:Target 50:1) was 26.9 ± 1.6% and the “% Specific Killing (±SEM)” value (SW1463 (Colorectal); Effector:Target 12.5:1) was 17.9 ± 1.7%. For the same molecule, the “% Specific Killing (±SEM)” value (SW1463 (Colorectal); Effector:Target 25:1) was 25.5 ± 0.6%, the “% Specific Killing (±SEM)” value (SW1463 (Colorectal); Effector:Target 50:1) was 33.8 ± 1.0% and the binding by immunofluorescence [2] was “binds”. For the same molecule, the binding by immunofluorescence [3] was “binds”.
